Patent US20220125891A1 (OSAKA UNIVERSITY, published 2022)

T1: Peptide 1 (CLDSGIGSLESQMSELWGVRGG), biotin-conjugated (human, biotin-conjugated)
T1 construct: also called human Regnase-1 peptide
T1 peptide: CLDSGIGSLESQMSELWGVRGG

T2: full-length human Regnase-1 with a FLAG tag on the N-terminal side and a biotin ligase BirA recognition … (human, UniProt Q5D1E8 1-599, biotinylated where required ; Biotinylated at the BirA recognition sequence where required. That sequence is not in the letters.)
T2 construct: Expressed in Expi293 cells, purified on FLAG M2 agarose and by gel filtration; also called full-length Regnase-1; human full-length Regnase-1
T2 sequence: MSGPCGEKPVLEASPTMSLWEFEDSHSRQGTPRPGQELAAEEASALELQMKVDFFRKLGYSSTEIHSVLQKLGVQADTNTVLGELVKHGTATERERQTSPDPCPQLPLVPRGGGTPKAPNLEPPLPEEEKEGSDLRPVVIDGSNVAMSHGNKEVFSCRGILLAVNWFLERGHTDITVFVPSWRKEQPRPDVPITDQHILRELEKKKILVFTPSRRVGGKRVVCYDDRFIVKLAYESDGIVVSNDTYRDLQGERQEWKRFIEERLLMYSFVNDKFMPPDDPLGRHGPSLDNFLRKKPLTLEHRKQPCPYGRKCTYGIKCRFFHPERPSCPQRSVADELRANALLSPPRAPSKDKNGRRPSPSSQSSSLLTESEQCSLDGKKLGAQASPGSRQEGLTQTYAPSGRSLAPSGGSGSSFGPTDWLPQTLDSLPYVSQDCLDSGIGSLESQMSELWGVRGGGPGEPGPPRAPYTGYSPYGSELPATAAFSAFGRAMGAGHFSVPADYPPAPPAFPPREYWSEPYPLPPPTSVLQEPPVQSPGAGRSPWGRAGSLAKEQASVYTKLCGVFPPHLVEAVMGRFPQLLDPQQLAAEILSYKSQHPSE


Assays:
[1] = target: T1, Peptide 1 (CLDSGIGSLESQMSELWGVRGG), …; assay: flow cytometry of antigen-coated streptavidin beads
[2] = target: T2, full-length human Regnase-1 with a FLAG …; assay: as above

Row | Binder | binding result [1] | binding result [2]
1 | REA0023 (antibody, V domains shown, Rabbit antibody gene expressed in HEK293 cells, purified by Protein A; also called anti-Regnase-1 antibody; anti-non-phosphorylated Regnase-1 peptide antibody) VH: QSLEESGGDLVKPGASLTLTCTDAGFSFSGVYWMHWVRQAPGKGLEWIACINAGSSGSTYYASWAKGRFTISKPSSTTVTLQMTSLTVADTATYFCARSFTLWGPGTLVTVSS VL: AVVTQTPSSVSAAVGGTVTIKCQSSQSVGNNNYLAWFQQKPGQPPKLLIYSASTLASGVPSRFSGSGSGTQFTLTISGVQCDDAATYYCLGGYDGDGEAFYVFGGGTEVVVKG | binds | binds
2 | REA0027 (antibody, V domains shown, Rabbit antibody gene expressed in HEK293 cells, purified by Protein A; also called anti-Regnase-1 antibody; anti-non-phosphorylated Regnase-1 peptide antibody) VH: QSLEESGGDLVKPGASLTLTCTASGFGFSSSYWMHWVRQAPGKGLEWIACINAGSSTKTYYASWAKGRFTISKPSSTTVTLQMTSLTVADTATYFCAWSFNLWGPGTLVTVSS VL: AVVTQTPSSVSAAVGGTVTIKCQSSQSVGNNNWLAWFQQKPGQPPKLLIYSASTLASGVPSRFSGSGSGTQFTLTISGVQCDDAATYYCLGGYDGDGEAFYVFGGGTEVVVKG | binds | binds
